Measurements reported in article PMC6753088, “The cryo-EM structure of the acid activatable pore-forming immune effector Macrophage-expressed gene 1” (Nature Communications, 2019).
Numbering of substitutions follows the chain as printed. Numbers in names are those of the source.

B1: human MPEG1 (Macrophage-expressed gene 1 / Perforin-2) soluble ectodomain, wild type (domain or fragment)
chain: KSGKPSGEMDEVGVQKCKNALKLPVLEVLPGGGWDNLRNVDMGRVMELTYSNCRTTEDGQYIIPDEIFTIPQKQSNLEMNSEILESWANYQSSTSYSINTELSLFSKVNGKFSTEFQRMKTLQVKDQAITTRVQVRNLVYTVKINPTLELSSGFRKELLDISDRLENNQTRMATYLAELLVLNYGTHVTTSVDAGAALIQEDHLRASFLQDSQSSRSAVTASAGLAFQNTVNFKFEENYTSQNVLTKSYLSNRTNSRVQSIGGVPFYPGITLQAWQQGITNHLVAIDRSGLPLHFFINPNMLPDLPGPLVKKVSKTVETAVKRYYTFNTYPGCTDLNSPNFNFQANTDDGSCEGKMTNFSFGGVYQECTQLSGNRDVLLCQKLEQKNPLTGDFSCPSGYSPVHLLSQIHEEGYNHLECHRKCTLLVFCKTVCEDVFQVAKAEFRAFWCVASSQVPENSGLLFGGLFSSKSINPMTNAQSCPAGYFPLRLFENLKVCVSQDYELGSRFAVPFGGFFSCTVGNPLVDPAISRDLGAPSLKKCPGGFSQHPALISDGCQVSYCVKSGLFTGGSLPPARLPPFTRPPLMSQAATNTVIVTNSENARSWIKDSQTHQWRLGEPIELRRAMNVIHGDGGGLS
B2: human MPEG1 soluble ectodomain, L425K mutant (domain or fragment)
chain: B1 chain with L425K
modifications: a glycan moiety attached to TMH-2 (residue not given)

Target: the molecule itself
Assay: cryo-EM structure; soluble MPEG1 ectodomain, 2.0-2.5 mg/mL, 20 mM Tris-HCl pH 7.2, 0.3 M NaCl; single particle analysis; two hexadecameric rings stacked head to head (D16, C16 or C1 imposed)

Protein	stoichiometry N
B1	16
B2	16
